According to publication PMC4786692:

Key:
[1] = target: VEGF-165 (R&D Systems) (human); assay: MSD receptor binding inhibition assay; VEGFR1 coated at […]; anti-VEGF molecule added 10 min before VEGF-165 (10 ng/ml final); 2 h room temperature; bound VEGF detected with biotinylated anti-VEGF and streptavidin sulfo-TAG
[2] = target: VEGF-165 (R&D Systems) (human); assay: MSD receptor binding inhibition assay; VEGFR2 coated at […]; anti-VEGF molecule added 10 min before VEGF-165 (10 ng/ml final); 2 h room temperature; bound VEGF detected with biotinylated anti-VEGF and streptavidin sulfo-TAG
Human VEGF-A121 (human) = assay: MSD (meso scale discovery) plate binding assay; VEGF ligand coated at 2 μg/ml on MSD high bind plate; anti-VEGF molecule added in 0.1% BSA/PBS, 2 h room temperature; detection with sulfo-TAG anti-human IgG (Fc-specific); n = 3
[3] = target: Human VEGF_(1–165) (human); assay: as above
Murine VEGF-A164 (mouse) = assay: as above
VEGF dual dAb (human) [4] = assay: SPR; ProteOn GLM chip; VEGF dual dAb alone or in complex with VEGF-165 immobilised by amine coupling; FcRn injected at 3.9-1000 nM; 25 °C, HBS-EP pH 6; equilibrium model
[5] = target: VEGF dual dAb in complex with human VEGF-165 (human); assay: as above
VEGF dual dAb (human) [6] = assay: SPR; Biacore T200, C1 chip; VEGF dual dAb captured on immobilised protein A (20 RU); VEGF injected at 0.03-32 nM (32 nM curves removed), 60 μl/min; 37 °C, HBS-EP; 1:1 model; triplicate
[7] = target: Human VEGF_(1–165) (human); assay: SEC-MALS; input proteins and complexes at input molar ratios 1:2, 2:1, 4:1 (dual dAb-VEGF) and 1:1, 1:2, 2:1, 4:1 (bevacizumab-VEGF); Superdex 200 column; PBS pH 7.4

VEGF dual dAb (human), sequence (heavy, as listed by the source, chain 1 of 2): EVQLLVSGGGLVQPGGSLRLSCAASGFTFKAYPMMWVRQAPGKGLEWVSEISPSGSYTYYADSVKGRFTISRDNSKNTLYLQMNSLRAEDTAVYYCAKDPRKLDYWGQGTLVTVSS
VEGF dual dAb (human), sequence (light, as listed by the source, chain 2 of 2): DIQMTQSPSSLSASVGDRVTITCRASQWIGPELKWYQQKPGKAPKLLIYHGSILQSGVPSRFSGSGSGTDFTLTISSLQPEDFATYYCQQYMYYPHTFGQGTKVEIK
Aflibercept (Fc fusion), sequence (chain): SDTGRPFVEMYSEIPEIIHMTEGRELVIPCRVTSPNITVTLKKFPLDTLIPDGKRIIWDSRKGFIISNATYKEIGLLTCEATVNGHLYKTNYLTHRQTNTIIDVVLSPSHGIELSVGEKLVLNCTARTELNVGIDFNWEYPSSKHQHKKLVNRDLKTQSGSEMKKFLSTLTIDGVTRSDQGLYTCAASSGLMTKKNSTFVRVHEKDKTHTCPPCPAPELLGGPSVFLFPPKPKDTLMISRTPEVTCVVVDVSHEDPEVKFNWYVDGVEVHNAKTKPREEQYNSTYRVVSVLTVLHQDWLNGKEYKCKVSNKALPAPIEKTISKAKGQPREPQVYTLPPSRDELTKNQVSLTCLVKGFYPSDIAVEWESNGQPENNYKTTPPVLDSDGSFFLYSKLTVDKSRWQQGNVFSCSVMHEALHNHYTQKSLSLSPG
VEGF dual dAb in complex with human VEGF-165 (human), sequence (heavy, as listed by the source, chain 1 of 2): as the sequence (heavy, as listed by the source, chain 1 of 2) above
VEGF dual dAb in complex with human VEGF-165 (human), sequence (light, as listed by the source, chain 2 of 2): as the sequence (light, as listed by the source, chain 2 of 2) above

Kd (VEGF dual dAb (human) [6])	koff (VEGF dual dAb (human) [6])	kon (VEGF dual dAb (human) [6])	Substance	other results
–	–	–	Aflibercept (Fc fusion)	IC50 [1]: 75 pM; IC50 [2]: 32 pM; EC50 (Human VEGF-A121 (human)): 317 pM; EC50 [3]: 86 pM; EC50 (Murine VEGF-A164 (mouse)): 95 pM
–	–	–	Human FcRn (from UniProt P55899 24-365; P61769 21-119) (receptor)	Kd (VEGF dual dAb (human) [4]): 325000 pM; Kd [5]: 479000 pM
9.94 pM	8.08e-05 s⁻¹	8.13e+06 M⁻¹ s⁻¹	Human VEGF-A165, E. coli expressed (ligand)	–
7.17 pM	4.76e-05 s⁻¹	6.63e+06 M⁻¹ s⁻¹	Human VEGF_(1–165) (ligand)	stoichiometry N [7]: 2
6.5 pM	5.19e-05 s⁻¹	8e+06 M⁻¹ s⁻¹	Murine VEGF-A164 (ligand)	–
